Biological target: T1, human TIGIT (human, UniProt Q495A1 22-244)
T1 construct: whole, on cells; The assays used cell-surface TIGIT; also called T-cell immunoreceptor with Ig and ITIM domains; VSIG9
T1 sequence (looked up): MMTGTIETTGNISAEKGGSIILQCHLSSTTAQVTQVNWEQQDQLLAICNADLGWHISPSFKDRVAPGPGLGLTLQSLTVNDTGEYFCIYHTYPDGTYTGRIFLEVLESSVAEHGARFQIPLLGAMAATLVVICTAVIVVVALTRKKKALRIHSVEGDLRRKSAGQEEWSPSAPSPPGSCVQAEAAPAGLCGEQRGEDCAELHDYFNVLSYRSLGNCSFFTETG
Assay: flow cytometry on anti-CD3-activated human PBMC, gated on CD4+ and CD8+ T cells
Experimental: After four days, the sample plates were centrifuged for two minutes at 2000 rpm and then supernatants were discarded. Samples were blocked with FcγR Block prepared in FACs buffer at 5 μL per 100 μL for 10 minutes. Sample plates were then centrifuged for two minutes at 2000 rpm and the supernatant was discarded. The cells were then resuspended in 100 μL of BA159 or a relevant isotype control antibody. To prepare antibodies, each antibody was diluted to 40 μg/mL in buffer for a final volume of 200 μL. Antibodies were then serially diluted 1 to 4 for a total of 12 dilutions ranging from 40 μg/mL to 0.00000954 μg/mL.
Cells were then resuspended in a cocktail of fluorescently labeled antibodies prepared in FACs buffer. 100 μL of antibody was add per well of a round-bottom 96-well plate. The sample plate was incubated for 20 minutes on ice. Cells were then washed by addition of cold sample buffer, centrifuged for two minutes at 2000 rpm, and supernatants were discarded. This wash was repeated once. […]
Antibody binding was measured by flow cytometry using a BD LSR Fortessa Flow Cytometer. […] 100,000 events were recorded for each sample. Samples were analyzed by sequentially gating on the following populations: FSC-A vs SSC-A, FSC-H vs FSC-A, SSC-A vs LIVE/DEAD, and CD4 vs CD8 Mean fluorescence intensity (MFI) was calculated.

B1: BA159 (antibody, human IgG1, lambda)
heavy: EVQLVQSGAEVKKPGSSVKVSCKASGYTFASYGISWVRQAPGQGLEWMGGITPFFNRVDVAEKFQGRVTITADKSTSTAYIELSSLRSEDTAVYYCARDLRRGGVGDAFDIWGRGTLVTVSSASTKGPSVFPLAPSSKSTSGGTAALGCLVKDYFPEPVTVSWNSGALTSGVHTFPAVLQSSGLYSLSSVVTVPSSSLGTQTYICNVNHKPSNTKVDKRVEPKSCDKTHTCPPCPAPELLGGPDVFLFPPKPKDTLMISRTPEVTCVVVDVSHEDPEVKFNWYVDGVEVHNAKTKPREEQYNSTYRVVSVLTVLHQDWLNGKEYKCKVSNKALPLPEEKTISKAKGQPREPQVYTLPPSREEMTKNQVSLTCLVKGFYPSDIAVEWESNGQPENNYKTTPPVLDSDGSFFLYSKLTVDKSRWQQGNVFSCSVMHEALHNHYTQKSLSLSPGK
light: QSALTQPRSVSGSPGQSVTISCTGTSSDVGSHNYVSWYQQHPGKAPKLMIYEVSYRPSGVSNRFSGSKSGNTASLTISGLQAEDEADYYCSSYTPSSATVFGAGTKLTVLGQPKAAPSVTLFPPSSEELQANKATLVCLISDFYPGAVTVAWKADSSPVKAGVETTTPSKQSNNKYAASSYLSLTPEQWKSHRSYSCQVTHEGSTVEKTVAPTECS
notes: also called anti-TIGIT antibody BA159
  binding result: binds

— patent US20220389095A1 (AGENUS, published 2022)
